Assay results: patent publication US20240158537A1

Molecular target: IL-7 receptor (IL-7R), heterodimer of IL-7R alpha (CD127) and common gamma chain (CD132), on primary human T cells (human) (UniProt P16871)
Assay: cell-based or functional assay

Sequence of IL-7 receptor (IL-7R), heterodimer of IL-7R alpha (CD127) and common gamma chain (CD132), on primary human T cells (human) (P16871 21-459, chain 1 of 2): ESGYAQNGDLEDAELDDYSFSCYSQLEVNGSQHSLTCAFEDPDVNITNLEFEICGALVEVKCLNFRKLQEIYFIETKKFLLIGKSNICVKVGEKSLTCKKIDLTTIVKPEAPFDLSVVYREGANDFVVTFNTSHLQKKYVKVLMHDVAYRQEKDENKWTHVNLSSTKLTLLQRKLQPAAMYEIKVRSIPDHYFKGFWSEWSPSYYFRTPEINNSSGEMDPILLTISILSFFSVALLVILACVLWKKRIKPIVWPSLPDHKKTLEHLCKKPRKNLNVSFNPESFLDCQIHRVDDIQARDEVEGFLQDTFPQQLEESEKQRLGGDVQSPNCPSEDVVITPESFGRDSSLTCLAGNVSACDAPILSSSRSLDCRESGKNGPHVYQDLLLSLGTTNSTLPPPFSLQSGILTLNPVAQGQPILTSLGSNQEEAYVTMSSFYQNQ
Sequence of IL-7 receptor (IL-7R), heterodimer of IL-7R alpha (CD127) and common gamma chain (CD132), on primary human T cells (human) (P31785 23-369, chain 2 of 2, further chain): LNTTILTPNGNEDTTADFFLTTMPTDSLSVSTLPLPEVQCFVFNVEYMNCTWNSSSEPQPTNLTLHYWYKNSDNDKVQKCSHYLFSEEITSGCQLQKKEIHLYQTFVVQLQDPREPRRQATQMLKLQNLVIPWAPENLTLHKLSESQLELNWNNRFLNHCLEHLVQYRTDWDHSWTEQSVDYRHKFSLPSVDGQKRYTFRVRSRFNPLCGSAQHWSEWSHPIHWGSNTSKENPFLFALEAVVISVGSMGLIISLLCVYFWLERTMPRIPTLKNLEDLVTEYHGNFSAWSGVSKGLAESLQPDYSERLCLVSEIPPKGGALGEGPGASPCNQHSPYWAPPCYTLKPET

## Synthetic IL-7 of SEQ ID NO: 3 (M17Nle, M27Nle, N36Hse, M54Nle, M69Nle, D76Hse, E114Hse, M147Nle) (from UniProt P13232 26-177) (ligand)
  Avg EC50 (nM) (human pSTAT5), CD4 Memory: 0.005 nM
  Avg EC50 (nM) (human pSTAT5), CD4 Naive: 0.005 nM
  Avg EC50 (nM) (human pSTAT5), CD4 Treg: 0.015 nM
  Avg EC50 (nM) (human pSTAT5), CD8 Memory: 0.006 nM
  Avg EC50 (nM) (human pSTAT5), CD8 Naive: 0.006 nM
